In assay [1] the target is T1, hNotch3 glutamate ligand binding region protein (EGF10-15 as printed), immobilized on a CM5 chip (human, UniProt Q9UM47 351-580).
T1 construct: domain: EGF10-15; For Notch3 the equivalent repeats would be EGF9-14
T1 sequence (looked up): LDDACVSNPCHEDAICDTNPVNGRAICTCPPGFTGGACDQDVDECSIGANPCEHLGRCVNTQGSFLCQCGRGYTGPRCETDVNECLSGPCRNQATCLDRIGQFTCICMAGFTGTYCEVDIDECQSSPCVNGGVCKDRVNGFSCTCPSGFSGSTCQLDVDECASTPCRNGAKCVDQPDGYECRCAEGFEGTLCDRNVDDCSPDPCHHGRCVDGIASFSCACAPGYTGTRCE
Description: Biacore 2000, Notch ligand binding region protein on CM5 chip, antibody 25 to 0.20 nM. Here is the method:
(§1) The KD's of certain anti-Notch glutamate ligand binding region antibodies were determined using the Biacore 2000 system from Biacore Lifesciencse (GE Healthcare). Specifically, purified anti-Notch glutamate ligand binding region antibodies were serially diluted in 2-fold increments from 25 to 0.20 nM in PBS with HBS-P (0.01 M HEPES pH 7.4, 0.15 M NaCl, 0.005% v/v Surfactant P20). Each dilution was tested against Notch glutamate ligand binding region proteins (EGF10-15) immobilized onto a CM5 Biacore chip. The association and dissociation rates were measured and KD values determined using the Biaevaluation software program. NB in the table below means a binding affinity as measured by a KD that is at least ten-fold weaker than the notch-ligand (delta-like ligand) affinity constant.
(In SPR one partner is held on a chip, and binding of the other changes the refractive index at the surface.)

Another assay has as its target T2, mNotch3(EGF9-14)Fc (mouse, UniProt Q61982 352-581).
T2 construct: domain: EGF9-14; also called murine Notch3; selected antigen; not shown: Fc
T2 sequence (looked up): T1 sequence (looked up) with N22S, T153M, D193E, T227I
Briefly: survey of fAbs after phage display selection on mNotch3(EGF9-14)Fc.

Assay [2] has as its target T3, full length Notch1 E424Q, expressed on HEK 293 cells (human, UniProt P46531 19-2555).
T3 construct: whole, on cells; also called mutated receptor (E424Q)
Description: FACS on transfected HEK 293 cells (FIG. 5).

The target in assay [3] is T4, hNotch1 glutamate ligand binding region protein (EGF10-15), immobilized on a CM5 chip (human, UniProt P46531 375-601).
T4 construct: domain: EGF10-15
Description: Biacore 2000, Notch EGF10-15 protein on CM5 chip, antibody 25 to 0.20 nM. Here is the method: as §1

In assay [4] the target is T5, mNotch1 glutamate ligand binding region protein (EGF10-15), immobilized on a CM5 chip (mouse, UniProt Q01705 375-601).
T5 construct: domain: EGF10-15
T5 sequence (looked up): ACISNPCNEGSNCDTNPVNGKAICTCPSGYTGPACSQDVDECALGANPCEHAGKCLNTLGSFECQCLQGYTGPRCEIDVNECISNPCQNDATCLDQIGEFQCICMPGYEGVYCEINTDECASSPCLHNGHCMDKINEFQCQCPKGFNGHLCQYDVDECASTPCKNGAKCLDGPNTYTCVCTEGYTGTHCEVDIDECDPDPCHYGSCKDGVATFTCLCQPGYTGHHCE
The assay is described as above. As to the method: as §1

Where a chain is given by its changes, count along the chain named.

T3 sequence (P46531 19-2555 E424Q): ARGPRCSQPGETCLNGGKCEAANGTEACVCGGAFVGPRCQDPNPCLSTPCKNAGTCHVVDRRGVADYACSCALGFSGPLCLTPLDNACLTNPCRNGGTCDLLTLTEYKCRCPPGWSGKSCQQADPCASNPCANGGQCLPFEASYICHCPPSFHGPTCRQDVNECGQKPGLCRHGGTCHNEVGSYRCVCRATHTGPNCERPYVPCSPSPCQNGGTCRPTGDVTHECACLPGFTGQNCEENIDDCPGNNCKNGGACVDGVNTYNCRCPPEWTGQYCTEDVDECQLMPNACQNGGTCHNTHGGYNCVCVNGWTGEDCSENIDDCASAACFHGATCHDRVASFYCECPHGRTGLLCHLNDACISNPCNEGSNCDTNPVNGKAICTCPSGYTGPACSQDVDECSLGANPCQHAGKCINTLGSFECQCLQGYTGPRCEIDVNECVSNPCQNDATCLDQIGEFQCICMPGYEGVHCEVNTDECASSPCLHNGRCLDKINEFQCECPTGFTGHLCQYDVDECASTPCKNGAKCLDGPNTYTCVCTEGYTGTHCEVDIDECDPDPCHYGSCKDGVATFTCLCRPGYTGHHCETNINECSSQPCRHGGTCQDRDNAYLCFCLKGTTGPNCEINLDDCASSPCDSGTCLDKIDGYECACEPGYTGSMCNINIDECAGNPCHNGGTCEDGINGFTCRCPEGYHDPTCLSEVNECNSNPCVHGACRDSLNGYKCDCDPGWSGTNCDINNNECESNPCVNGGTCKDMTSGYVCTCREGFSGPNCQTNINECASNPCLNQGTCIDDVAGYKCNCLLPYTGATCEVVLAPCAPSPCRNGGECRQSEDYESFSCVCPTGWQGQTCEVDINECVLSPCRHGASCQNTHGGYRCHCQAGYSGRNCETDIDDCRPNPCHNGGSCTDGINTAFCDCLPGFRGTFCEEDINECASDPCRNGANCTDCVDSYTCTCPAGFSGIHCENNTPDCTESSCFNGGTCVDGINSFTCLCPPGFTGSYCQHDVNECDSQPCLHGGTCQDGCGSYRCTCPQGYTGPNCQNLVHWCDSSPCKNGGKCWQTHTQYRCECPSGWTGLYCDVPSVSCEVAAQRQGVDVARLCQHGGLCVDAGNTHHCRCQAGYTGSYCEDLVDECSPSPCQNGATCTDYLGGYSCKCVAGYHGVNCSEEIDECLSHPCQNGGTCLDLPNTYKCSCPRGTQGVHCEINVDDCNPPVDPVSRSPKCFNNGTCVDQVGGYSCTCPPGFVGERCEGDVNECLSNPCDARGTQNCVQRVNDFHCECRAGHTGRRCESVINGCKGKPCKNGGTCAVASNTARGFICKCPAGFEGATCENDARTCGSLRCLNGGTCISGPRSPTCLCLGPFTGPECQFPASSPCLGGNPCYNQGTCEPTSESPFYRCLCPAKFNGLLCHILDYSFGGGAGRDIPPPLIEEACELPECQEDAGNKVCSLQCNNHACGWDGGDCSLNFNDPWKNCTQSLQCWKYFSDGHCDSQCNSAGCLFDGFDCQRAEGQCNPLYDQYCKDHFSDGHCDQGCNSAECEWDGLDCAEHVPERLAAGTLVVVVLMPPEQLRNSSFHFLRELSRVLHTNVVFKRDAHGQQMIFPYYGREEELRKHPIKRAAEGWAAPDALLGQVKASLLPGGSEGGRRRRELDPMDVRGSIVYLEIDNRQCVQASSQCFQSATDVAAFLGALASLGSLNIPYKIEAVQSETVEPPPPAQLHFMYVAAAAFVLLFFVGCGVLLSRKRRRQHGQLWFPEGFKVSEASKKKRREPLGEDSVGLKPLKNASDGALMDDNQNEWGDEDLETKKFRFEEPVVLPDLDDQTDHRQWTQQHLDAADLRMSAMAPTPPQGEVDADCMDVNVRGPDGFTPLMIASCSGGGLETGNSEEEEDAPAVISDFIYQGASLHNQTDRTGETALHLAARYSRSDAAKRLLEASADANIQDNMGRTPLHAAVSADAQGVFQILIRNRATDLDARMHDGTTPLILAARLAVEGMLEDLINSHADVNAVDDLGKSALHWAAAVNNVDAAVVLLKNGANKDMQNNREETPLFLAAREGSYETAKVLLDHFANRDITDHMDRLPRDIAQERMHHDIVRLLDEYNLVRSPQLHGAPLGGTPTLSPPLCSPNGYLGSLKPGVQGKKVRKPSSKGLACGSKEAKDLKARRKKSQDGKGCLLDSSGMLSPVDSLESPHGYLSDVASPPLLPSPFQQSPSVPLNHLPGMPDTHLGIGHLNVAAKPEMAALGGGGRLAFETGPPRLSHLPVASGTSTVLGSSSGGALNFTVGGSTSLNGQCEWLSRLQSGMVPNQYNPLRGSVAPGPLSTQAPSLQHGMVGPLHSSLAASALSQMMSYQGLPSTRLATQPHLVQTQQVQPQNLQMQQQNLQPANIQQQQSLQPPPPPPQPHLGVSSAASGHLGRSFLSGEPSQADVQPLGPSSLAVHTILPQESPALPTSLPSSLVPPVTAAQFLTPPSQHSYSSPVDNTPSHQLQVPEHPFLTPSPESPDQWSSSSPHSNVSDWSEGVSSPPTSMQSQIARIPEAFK

B1: 122R5 (Fab, V domains shown)
VH: QVQLVESGGGLVQPGGSLRLSCAASGFTFSDNAIHWVRQAPGKGLEWVSAISSYGSGTYYADSVKGRFTISRDNSKNTLYLQMNSLRAEDTAVYYCARPGFQFSFTFMDIWGQGTLVTVSS
VL: DIELTQPPSVSVAPGQTARISCSGDALGSKYASWYQQKPGQAPVLVIYDDKNRPSGIPERFSGSNSGNTATLTISGTQAEDEADYYCQSWDGKSKVVFGGGTKLTVLG
notes: Human fAb from phage display; also called fAb122R5; lead fAb, 122R5
The term Kd denotes a measure of binding affinity in units of concentration. Higher therefore signals lower affinity. In the case of B1, the Kd in assay [1] was below 0.1 nM; in assay [3] it was 4.25 nM. Also, the binding result in the assay with mNotch3(EGF9-14)Fc was “binds”; in assay [2], “no binding”.

B2: 90R21 (antibody, V domains shown)
VH: EVQLLESGGGLVQPGGSLRLSCAASGFTFSNYGMSWVRQAPGKGLEWVSSISGYGSNTYYADSVKGRFTISRDNSKNTLYLQMNSLRAEDTAVYYCARISQQAVWGQGTLVTVSS
VL: QSALTQPASVSGSPGQSITISCTGTSSDIGGYQYVSWYQQHPGKAPKLMIYYVSNRPSGVSNRFSGSKSGNTASLTISGLQAEDEADYYCQSADSSSWVFGGGTKLTVLG
notes: also called ATCC deposit No. PTA-8909
In the case of B2, the Kd is below 0.1 nM in assay [3] and 0.25 nM in assay [4].

The values are drawn from patent publication US20090047285A1 (ONCOMED PHARMACEUTICALS, published 2009).
